Laboratory results published in patent US20190142971A1, “FORMULATION AND DELIVERY OF MODIFIED NUCLEOSIDE, NUCLEOTIDE, AND NUCLEIC ACID COMPOSITIONS” (ModernaTX, Inc., priority 2013, published 2019).
Like-named read-outs stand apart in the source and are kept apart here.

Legend:
[1] = system: peripheral blood mononuclear cells (PBMC); experiment: Example 56: percent modification, PBMC G-CSF ELISA (Table 85); type: cell-based, human; conditions: 22 hours after transfection
Protocol: 480 ng of G-CSF mRNA modified with 5-methylcytosine (5mC) and pseudouridine (pseudoU) or unmodified G-CSF mRNA was transfected with 0.4 uL of Lipofectamine 2000 into peripheral blood mononuclear cells (PBMC) from three normal blood donors (D1, D2, and D3). […] The supernatant was harvested and run by ELISA 22 hours after transfection to determine the protein expression. The expression of IFN-alpha and TNF-alpha may be a secondary effect from the transfection of the G-CSF mRNA.

Balb-C mice = experiment: Example 117: repeat dose luciferase KC2 LNP IM, IV, live and tissue imaging (Tables 192-200); type: in vivo; conditions: luciferase mRNA in PBS, IM 2.50 mg/kg
Protocol: “TM-2” means the groups were administered with 2 doses, administered 24 hours apart, “IV” means intravenous administration, “TV-1” means the groups were administered a single dose tail vein injection and “TV-2” means the groups were administered with 2 doses, administered 7 days apart. 2 groups of untreated Balb-C mice (n=3) were also evaluated. Groups 1, 3 and 7 were injected in the right leg and administration was repeated but into the left leg with 24 hours between injections. Groups 2, 4, and 9 were administered the mRNA in the right leg followed by repeat administration in the right leg with 24 hours between injections for Group 2 and 7 days between injections for Groups 4 and 9.
The final lipid molar ratio ranges of DLin-KC2-DMA, DSPC, cholesterol and PEG-DMG for the KC2 LNP are outlined in Table 194. The weight ratio of total lipid to mRNA was 20:1, the mean size was 95 nm (PDI: 0.11), the zeta at pH 7.4 was −1.0 mV and the encapsulation (RiboGreen) was essentially 100%.
Live imaging mice were imaged at 8 hours post-administration of each dose of luciferase modified mRNA and tissue imaging mice imaged 8 post-administration of the final dose of luciferase modified mRNA. Twenty minutes prior to imaging, the mice were injected intraperitoneally with a D-luciferin solution at 150 mg/kg. Animals were then anesthetized and images were acquired with an IVIS Lumina II imaging system (Perkin Elmer). For the tissue imaging mice (Groups 6-9), the mice were dissected twenty minutes after the D-luciferin injection and organs and tissue were subsequently imaged (muscle around injection site, liver and spleen for Groups 6 and 7 and were subsequently imaged the liver and spleen for Groups 8 and 9). Bioluminescence was measured as total flux (photons/second) of the mid-section and the entire mouse (IV administration), the injection site (IM administration), or the entire organ (tissue imaging).

mice [2] = experiment: Example 48: split dose study EPO mmRNA IM in mice, serum EPO, dose splitting factor (Table 79); type: in vivo
Protocol: The dosing vehicle (F. buffer) consisted of 150 mM NaCl, 2 mM CaCl2), 2 mM Natphosphate (1.4 mM monobasic sodium phosphate; 0.6 mM dibasic sodium phosphate), and 0.5 mM EDTA, pH 6.5. The pH was adjusted using sodium hydroxide and the final solution was filter sterilized.
Animals (n=5) were injected IM (intramuscular) for the single unit dose of 100 ug. For multi-dosing, two schedules were used, 3 doses of 100 ug and 6 doses of 100 ug. For the split dosing scheme, two schedules were used, 3 doses at 33.3 ug and 6 doses of 16.5 ug mmRNA. Control dosing involved use of buffer only at 6 doses. […] Blood and muscle tissue were evaluated 13 hrs post injection.
Human EPO protein was measured in mouse serum 13 h post I.M. single, multi- or split dosing of the EPO mmRNA in buffer. Seven groups of mice (n=5 mice per group) were treated and evaluated.
The splitting factor is defined as the product per unit drug divided by the single dose product per unit drug (PUD). For example for treatment group 2 the value 0.28 or product (EPO) per unit drug (mmRNA) is divided by the single dose product per unit drug of 0.14. The result is 2. Likewise, for treatment group 4, the value 1.1 or product (EPO) per unit drug (mmRNA) is divided by the single dose product per unit drug of 0.14. The result is 7.9. Consequently, the dose splitting factor (DSF) may be used as an indicator of the efficacy of a split dose regimen. For any single administration of a total daily dose, the DSF should be equal to 1. Therefore any DSF greater than this value in a split dose regimen is an indication of increased efficacy.

mice [3] = conditions: for Serum Concentration 8-12 hours after administration: G-CSF; for G-CSF Protein Expression, Conc: LNP IV, mice, 8 hrs
mice [4] = experiment: Example 41: IV lipoplexed G-CSF mRNA in mice, neutrophil count (Table 66); type: in vivo; conditions: IV 10% lipoplex, 50 ug at days 0, 2, 4; day 5
Protocol: Neutrophils were measured at days 1, 5 and 8. Controls included non-specific mammalian RNA or the formulation buffer alone (F.Buffer). The mice were bled at days 1, 5 and 8 to determine the effect of mRNA-encoded human G-CSF to increase neutrophil count. The dosing regimen is shown in Table 66 as are the resulting neutrophil counts (thousands/uL; K/uL).

BALB/C mice = experiment: Example 59: G-CSF mRNA IM in mice, serum human G-CSF and mouse IFN-alpha ELISA (Table 93); type: in vivo
[5] = I.M., 200 ug/mouse (R848 75 ug/mouse), 50 ul, 8 hours after dosing

## Luciferase: luciferase mRNA, SEQ ID NO: 14, Cap1, fully modified with 5-methylcytosine and pseudouridine
[1]; PBMC donor D1, 480 ng mRNA
  G-CSF Expression: 90.2 pg/mL
[1]; PBMC donor D2, 480 ng mRNA
  G-CSF Expression: 0.0 pg/mL
[1]; PBMC donor D3, 480 ng mRNA
  G-CSF Expression: 22.1 pg/mL
Balb-C mice; Dose 1, Dosed Right limb
  Expression (Flux (p/s)): 6.71E+06 p/s
Balb-C mice; Dose 1, Undosed Left limb
  Expression (Flux (p/s)): 2.28E+05 p/s
Balb-C mice; Dose 2, Dosed Left limb
  Expression (Flux (p/s)): 1.16E+07 p/s
Balb-C mice; Dose 2, Undosed Right limb
  Expression (Flux (p/s)): 2.44E+07 p/s

B1: EPO: modified mRNA encoding human erythropoietin, SEQ ID NO: 7, Cap1, fully modified with 5-methylcytosine and pseudouridine; LNP NPA-060-1 in Examples 17-22 (nucleic acid)
chain: GGGAAAUAAGAGAGAAAAGAAGAGUAAGAAGAAAUAUAAGAGCCACCAUGGGAGUGCACGAGUGUCCCGCGUGGUUGUGGUUGCUGCUGUCGCUCUUGAGCCUCCCACUGGGACUGCCUGUGCUGGGGGCACCACCCAGAUUGAUCUGCGACUCACGGGUACUUGAGAGGUACCUUCUUGAAGCCAAAGAAGCCGAAAACAUCACAACCGGAUGCGCCGAGCACUGCUCCCUCAAUGAGAACAUUACUGUACCGGAUACAAAGGUCAAUUUCUAUGCAUGGAAGAGAAUGGAAGUAGGACAGCAGGCCGUCGAAGUGUGGCAGGGGCUCGCGCUUUUGUCGGAGGCGGUGUUGCGGGGUCAGGCCCUCCUCGUCAACUCAUCACAGCCGUGGGAGCCCCUCCAACUUCAUGUCGAUAAAGCGGUGUCGGGGCUCCGCAGCUUGACGACGUUGCUUCGGGCUCUGGGCGCACAAAAGGAGGCUAUUUCGCCGCCUGACGCGGCCUCCGCGGCACCCCUCCGAACGAUCACCGCGGACACGUUUAGGAAGCUUUUUAGAGUGUACAGCAAUUUCCUCCGCGGAAAGCUGAAAUUGUAUACUGGUGAAGCGUGUAGGACAGGGGAUCGCUGAUAAGCUGCCUUCUGCGGGGCUUGCCUUCUGGCCAUGCCCUUCUUCUCUCCCUUGCACCUGUACCUCUUGGUCUUUGAAUAAAGCCUGAGUAGGAAG
modifications: Cap1, 5-methylcytosine, pseudouridine
Mice [2]; single dose
  product (EPO) per unit drug (mmRNA): 0.14
Mice [2]; treatment group 2
  dose splitting factor (DSF): 2
  product (EPO) per unit drug (mmRNA): 0.28
Mice [2]; treatment group 4
  dose splitting factor (DSF): 7.9
  product (EPO) per unit drug (mmRNA): 1.1

B2: G-CSF: modified mRNA encoding human G-CSF, SEQ ID NO: 4, Cap1, fully modified with 5-methylcytosine and pseudouridine; LNP-formulated in Examples 16-22 (nucleic acid)
chain: GGGAAAUAAGAGAGAAAAGAAGAGUAAGAAGAAAUAUAAGAGCCACCAUGGCCGGUCCCGCGACCCAAAGCCCCAUGAAACUUAUGGCCCUGCAGUUGCUGCUUUGGCACUCGGCCCUCUGGACAGUCCAAGAAGCGACUCCUCUCGGACCUGCCUCAUCGUUGCCGCAGUCAUUCCUUUUGAAGUGUCUGGAGCAGGUGCGAAAGAUUCAGGGCGAUGGAGCCGCACUCCAAGAGAAGCUCUGCGCGACAUACAAACUUUGCCAUCCCGAGGAGCUCGUACUGCUCGGGCACAGCUUGGGGAUUCCCUGGGCUCCUCUCUCGUCCUGUCCGUCGCAGGCUUUGCAGUUGGCAGGGUGCCUUUCCCAGCUCCACUCCGGUUUGUUCUUGUAUCAGGGACUGCUGCAAGCCCUUGAGGGAAUCUCGCCAGAAUUGGGCCCGACGCUGGACACGUUGCAGCUCGACGUGGCGGAUUUCGCAACAACCAUCUGGCAGCAGAUGGAGGAACUGGGGAUGGCACCCGCGCUGCAGCCCACGCAGGGGGCAAUGCCGGCCUUUGCGUCCGCGUUUCAGCGCAGGGCGGGUGGAGUCCUCGUAGCGAGCCACCUUCAAUCAUUUUUGGAAGUCUCGUACCGGGUGCUGAGACAUCUUGCGCAGCCGUGAAGCGCUGCCUUCUGCGGGGCUUGCCUUCUGGCCAUGCCCUUCUUCUCUCCCUUGCACCUGUACCUCUUGGUCUUUGAAUAAAGCCUGAGUAGGAAG
modifications: Cap1, 5-methylcytosine, pseudouridine
Mice [3]; IM, 100 ug
  Serum Concentration 8-12 hours after administration: ~20 to 80 pg/mL
Mice [3]; IV (LNP), 1 ug
  Serum Concentration 8-12 hours after administration: ~20,000 pg/ml
Mice [3]; IV (LNP), 10 ug
  Serum Concentration 8-12 hours after administration: ~1,000,000 pg/ml
Mice [3]; IV (LNP), 100 ug
  Serum Concentration 8-12 hours after administration: ~5,000,000 pg/ml
Mice [3]; IV (Lipoplex), 100 ug
  Serum Concentration 8-12 hours after administration: ~30 pg/mL
Mice [3]; SC, 100 ug
  Serum Concentration 8-12 hours after administration: ~10 to 40 pg/mL
Mice [3]; dose 10 ug
  G-CSF Protein Expression, Conc: 1204.82 ng/mL
Mice [3]; dose 100 ug
  G-CSF Protein Expression, Conc: 4722.20 ng/mL
Mice [4]
  increase in neutrophil count above control: four to five fold increase
BALB/C mice; [5]
  G-CSF protein (human, serum): 356.5 pg/mL
  IFN-alpha expression (mouse, serum): 8.87 pg/mL
BALB/C mice; I.M., 200 ug/mouse (R848 75 ug/mouse), 8 hours after dosing
  PC Ratio (Protein: Cytokine Ratio): 40
BALB/C mice; IM, 8 hours
  mouse IFN-alpha in the serum (cytokine response): low but detectable cytokine response
